In patent US20120094923A1 (published 2012):
Blank lines part the entries; values can stand above or below the binder they belong to.

How the values were obtained:
BPTI-K15R/R17G [1] = biological target: T1, BPTI-K15R/R17G (bovine, UniProt P00974 36-93); assay: co-crystal structure, PDB 3P92
BPTI-K15R/R17D [2] = biological target: T2, BPTI-K15R/R17D (bovine, UniProt P00974 36-93); assay: co-crystal structure, PDB 3P95
Protocol: The heterodimeric complexes were further purified by HiLoad Superdex 75 gel filtration chromatography (GE Healthcare), exchanged into 10 mM Na acetate, pH 6.5, and concentrated to ˜3 mg/mL. […] Drops (4 μL) were prepared by mixing equal volumes of protein and reservoir solutions.

[3] = biological target: bovine pancreatic trypsin inhibitor, wild type (bovine, UniProt P00974 36-93); assay: 1/Ki from competitive inhibition
BPTI-K15R = BPTI-K15R (bovine, UniProt P00974 36-93); assay: 1/Ki from competitive inhibition
BPTI-R17M = BPTI-R17M (bovine, UniProt P00974 36-93); assay: 1/Ki from competitive inhibition
BPTI-K15R/R17M = BPTI-K15R/R17M (bovine, UniProt P00974 36-93); assay: 1/Ki from competitive inhibition
BPTI-K15R/R17G [4] = biological target: T1, BPTI-K15R/R17G; assay: 1/Ki from competitive inhibition
BPTI-K15R/R17D [5] = biological target: T2, BPTI-K15R/R17D; assay: 1/Ki from competitive inhibition
BPTI-K15R/R17G [6] = biological target: T1, BPTI-K15R/R17G; assay: slow tight-binding inhibition kinetics
Protocol: Reactions were run at 25° C., and were followed spectroscopically for 16 hours so that reliable steady-state rates could be obtained.

- binding result (BPTI-K15R/R17G [1]): binds
- binding result (BPTI-K15R/R17D [2]): binds
B1: catalytically inactive mesotrypsin-S195A (enzyme)
chain: IVGGYTCEENSLPYQVSLNSGSHFCGGSLISEQWVVSAAHCYKTRIQVRLGEHNIKVLEGNEQFINAAKIIRHPKYNRDTLDNDIMLIKLSSPAVINARVSTISLPTAPPAAGTECLISGWGNTLSFGADYPDELKCLDAPVLTQAECKASYPGKITNSMFCVGFLEGGKDSCQRDAGGPVVCNGQLQGVVSWGHGCAWKNRPGVYTKVYNYVDWIKDTIAANS
notes: Used for the co-crystal structures; also called S195A mutant

- Ka [3]: 74100 M⁻¹
- Ka (BPTI-K15R): 417000 M⁻¹
- Ka (BPTI-R17M): 1.32e+06 M⁻¹
- Ka (BPTI-K15R/R17M): 4.76e+06 M⁻¹
- Ka (BPTI-K15R/R17G [4]): 9.3e+07 M⁻¹
- Ka (BPTI-K15R/R17D [5]): 667000 M⁻¹
B2: recombinant human mesotrypsin (enzyme)
chain: IVGGYTCEENSLPYQVSLNSGSHFCGGSLISEQWVVSAAHCYKTRIQVRLGEHNIKVLEGNEQFINAAKIIRHPKYNRDTLDNDIMLIKLSSPAVINARVSTISLPTAPPAAGTECLISGWGNTLSFGADYPDELKCLDAPVLTQAECKASYPGKITNSMFCVGFLEGGKDSCQRDSGGPVVCNGQLQGVVSWGHGCAWKNRPGVYTKVYNYVDWIKDTIAANS
notes: also called PRSS3

- binding result (BPTI-K15R/R17G [6]): binds
B3: recombinant human anionic trypsin (enzyme, UniProt P07478 24-247, looked up)
chain: IVGGYICEENSVPYQVSLNSGYHFCGGSLISEQWVVSAGHCYKSRIQVRLGEHNIEVLEGNEQFINAAKIIRHPKYNSRTLDNDILLIKLSSPAVINSRVSAISLPTAPPAAGTESLISGWGNTLSSGADYPDELQCLDAPVLSQAECEASYPGKITNNMFCVGFLEGGKDSCQGDSGGPVVSNGELQGIVSWGYGCAQKNRPGVYTKVYNYVDWIKDTIAANS
notes: mature
